Measured values published in publication PMC6733935, “A convenient and efficient total solid-phase synthesis of DOTA-functionalized tumor-targeting peptides for PET imaging of cancer” (EJNMMI Research, 2019).
Square brackets hold non-standard residues; d marks the D form. Peptide text beside a SMILES is read from it. * marks the point of attachment. DOTA = O=C(O)CN1CCN(CC(=O)O)CCN(CC(=O)*)CCN(CC(=O)O)CC1; Cha = N[C@@H](CC1CCCCC1)C(=O)O; 4Abz = Nc1ccc(C(=O)O)cc1; Nle = CCCC[C@H](N)C(=O)O; Ahx = NCCCCCC(=O)O

How the values were obtained:
[1] = format: physicochemical
Experimental: For lipophilicity determination, each HPLC-purified radiopeptide (~ 20 μL, ∼ 25 μCi) was added into a glass tube containing an equal volume mixture of n-octanol and water (1 mL each). The samples were vigorously vortexed for 5 min and subsequently centrifuged (5000 rpm, 5 min) to yield two immiscible layers. Duplicate samples (100 μL) from each layer were carefully taken (to avoid cross-contamination between the layers) for radioactivity measurement using a γ-counter. Partition coefficient was determined by the function: partition coefficient = Log10 (radioactivity in octanol layer/radioactivity in aqueous layer).

[2] = target: T1, BN/GRP receptor-positive PC3 human prostate cancer cells (Homo sapiens, UniProt P30550); assay: Saturation binding assay on PC3 cells; settings: n = 3-5 experiments; for Bmax (apparent number of binding sites per cell): SD < 15%; for Kd: ~300,000 cells, 0.1-25 nM radiopeptide, 60 min, room temperature, mean ± SD
T1 construct: BN/GRP receptor-positive MDA-MB-231, MCF7, T47D human breast cancer, and PC3 human prostate cancer lines; host or cells: MDA-MB-231, MCF7, T47D (human breast cancer), PC3 (human prostate cancer); intact cells
Experimental: (§1) The cell binding of ^68Ga-radiolabeled peptides into BN/GRP receptor-positive MDA-MB-231, MCF7, T47D human breast cancer, and PC3 human prostate cancer lines (American Type Culture Collection, Rockville, MD, USA) was performed according to the method described previously. In brief, ∼ 300,000 cells (in 300 μL in low-serum media) were incubated with various amounts of radiopeptides, ranging between 0.1 and 25 nM of peptide (prepared from the serial dilutions of HPLC-purified radiopeptides), in duplicate for 60 min at room temperature. The initial concentrations of ^68Ga-labeled peptides were determined according to a well-established HPLC technique with simultaneous detection by UV absorbance. As the amount of BN peptide in the reaction mixture was too small to be detected by UV absorption at 220 nm, the radioactive peptide chromatograms from the HPLC analysis were compared (with UV chromatograms) with those of known concentrations of the corresponding nonradioactive peptides for the mass determination. Incubation was terminated by dilution with cold saline (300 μL) and the cells were pelleted by centrifugation. The cell pellets was then rapidly washed with cold saline to remove any unbound peptide and centrifuged to collect supernatants. Radioactivity in the cell pellet and the washings was measured in a γ-counter. Non-specific binding was determined in the presence of ~ 200-fold molar excess of unlabeled BN peptide. Specific binding is calculated by subtracting the non-specifically bound radioactivity from that of the total binding. The dissociation constant (Kd) was calculated using a plot of cell bound activity versus the concentration of the radioligand using GraphPad Prism software (GraphPad Software Inc., San Diego, CA, USA).

[3] = Radio-HPLC retention time as reflection of lipophilicity; format: physicochemical; settings: chromatographic, econosphere C18 (10 μm, 250 × 4.6 mm), 0.1% TFA water/acetonitrile, 5 to 95% B over 30 min, 1.1 mL/min; radio detection; used as reflection of lipophilicity
Experimental: The HPLC analysis and purification of the peptides were performed on a Shimadzu HPLC system using econosphere C18 reversed-phase column (10 μm, 250 × 4.6 mm). For all HPLC experiments, a gradient system of 0.1% (v/v) TFA in water (solvent A) and 0.1% (v/v) TFA in acetonitrile (solvent B) at a flow rate of 1.1 mL/min was used. The HPLC gradient began with a solvent composition of 95% A and 5% B from 0 to 2.5 min followed by a linear gradient of 95% A and 5% B to 5% A and 95% B over 30 min. The gradient remained at this position for 3 min before switching back to 95% A and 5% B for another 7 min. The major peak isolated and the acetonitrile was then slowly evaporated under a stream of nitrogen gas. Radiochemical purity was estimated by evaluating radioactivity peaks eluted for each ^68Ga-labeled peptide from the HPLC column and calculating the area under the peak (ROI). The main peak of each radiopeptide was isolated and reconstituted in sterile saline for in vitro and in vivo experiments. Radiolabeling of DOTA-coupled BN peptides with ^68Ga was accomplished simply by mixing ~ 20 μg BN peptide with sodium acetate buffer and ^68GaCl3 followed by heating to complete the labeling reaction. By this facile method, a high and reproducible radiolabeling of peptides with ^68Ga was achieved (up to 95%), with a specific radioactivity of greater than 250 Ci/mmol. […] A radiolabeling efficiency of greater than 90% was obtained in all cases, and it ranged between 90 and 95%. […] RP-HPLC retention times of the major peaks, ranging from 18.3 to 20.3 min, reflected slightly variable lipophilicity of these ^68Ga-complexes (Table 1).

[4] = target: T2, BN/GRP receptor-positive T47D human breast cancer cells (Homo sapiens, UniProt P30550); assay: Saturation binding assay on T47D cells; settings: n = 3-5 experiments; for Bmax (apparent number of binding sites per cell): SD < 15%; for Kd: ~300,000 cells, 0.1-25 nM radiopeptide, 60 min, room temperature, mean ± SD
T2 construct: BN/GRP receptor-positive MDA-MB-231, MCF7, T47D human breast cancer, and PC3 human prostate cancer lines; host or cells: MDA-MB-231, MCF7, T47D (human breast cancer), PC3 (human prostate cancer); intact cells
Experimental: as §1

[5] = in vivo; format: in vivo, nude mice; settings: female, nude, mouse, in vivo, total radioactivity
Summary of the method: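 Female mice bore subcutaneous left-thigh xenografts of ~5 million MDA-MB-231 cells in PBS, grown 4-6 weeks to 200-300 mg. Animals received 20-30 μCi of 68Ga-labelled peptide and were sacrificed at set time points; tumour and organ uptake measured by γ-counting.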

[6] = Radioactivity in Urine + bladder
[7] = Uptake in Intestines (measured without their contents)

## CCCC[C@H](NC(=O)[C@H](Cc1c[nH]cn1)NC(=O)[C@H](CC1CCCCC1)NC(=O)[C@@H](NC(=O)[C@H](C)NC(=O)[C@H](Cc1c[nH]c2ccccc12)NC(=O)[C@H](CCC(N)=O)NC(=O)[C@H](CS)NC(=O)CNC(=O)CNC(=O)c1ccc(NC(=O)CN2CCN(CC(=O)O)CCN(CC(=O)O)CCN(CC(=O)O)CC2)cc1)C(C)C)C(=O)N[C@@H](CCSC)C(N)=O [^68Ga-DOTA-Abz-BN Tris-, metal not drawn] ({DOTA-4Abz}-GGCQWAV[Cha]H[Nle]M-NH2)
[1]
  Log P (octanol/water): − 1.04 ± 0.10
[2]
  Bmax (apparent number of binding sites per cell): 5.90 × 10^5 sites/cell
[3]
  Radio-HPLC tR: 19.3 min
[4]
  Bmax (apparent number of binding sites per cell): 1.0 × 10^5 sites/cell

## CCCC[C@H](NC(=O)[C@H](Cc1c[nH]cn1)NC(=O)[C@H](CC1CCCCC1)NC(=O)[C@@H](NC(=O)[C@H](C)NC(=O)[C@H](Cc1c[nH]c2ccccc12)NC(=O)[C@H](CCC(N)=O)NC(=O)[C@H](CS)NC(=O)CNC(=O)CNC(=O)CCCCCNC(=O)CN1CCN(CC(=O)O)CCN(CC(=O)O)CCN(CC(=O)O)CC1)C(C)C)C(=O)N[C@@H](CCSC)C(N)=O [^68Ga-DOTA-Ahx-BN Cyclen, metal not drawn] ({DOTA-Ahx}-GGCQWAV[Cha]H[Nle]M-NH2)
[2]
  Bmax (apparent number of binding sites per cell): 5.29 × 10^5 sites/cell
  Kd: 9.89 ± 1.56 nM
[3]
  Radio-HPLC tR: 18.3 min
[4]
  Bmax (apparent number of binding sites per cell): 4.75 × 10^5 sites/cell
  Kd: 15.3 ± 3.42 nM
[5]; [6]
  dose excreted at 1 h: 64 ± 9.15%
  dose excreted at 2 h: 70 ± 8.7%
[5]; Uptake in Blood
  tissue uptake at 1 h: 0.92 ± 0.15 %ID/g
  tissue uptake at 2 h: 0.51 ± 0.07 %ID/g
[5]; [7]
  tissue uptake at 1 h: 0.86 ± 0.12 %ID/g
  tissue uptake at 2 h: 0.61 ± 0.06 %ID/g
[5]; Uptake in Kidneys
  tissue uptake at 1 h: 4.93 ± 0.38 %ID/g
  tissue uptake at 2 h: 4.01 ± 0.41 %ID/g
[5]; Uptake in Lungs
  tissue uptake at 2 h: 0.36 ± 0.03 %ID/g
[5]; Uptake in Muscle
  tissue uptake at 1 h: 0.23 ± 0.03 %ID/g
  tissue uptake at 2 h: 0.19 ± 0.02 %ID/g
[5]; Uptake in Pancreas
  tissue uptake at 1 h: 1.65 ± 0.14 %ID/g
  tissue uptake at 2 h: 0.82 ± 0.1 %ID/g
[5]; Uptake in Spleen
  tissue uptake at 1 h: 0.25 ± 0.02 %ID/g
  tissue uptake at 2 h: 0.14 ± 0.01 %ID/g
[5]; Uptake in Stomach
  tissue uptake at 1 h: 0.73 ± 0.13 %ID/g
  tissue uptake at 2 h: 0.34 ± 0.05 %ID/g

## CCCC[C@H](NC(=O)[C@H](Cc1c[nH]cn1)NC(=O)[C@H](CC1CCCCC1)NC(=O)[C@@H](NC(=O)[C@H](C)NC(=O)[C@H](Cc1c[nH]c2ccccc12)NC(=O)[C@H](CCC(N)=O)NC(=O)[C@H](CS)NC(=O)CNC(=O)CNC(=O)CCCCCNC(=O)CN1CCN(CC(=O)O)CCN(CC(=O)O)CCN(CC(=O)O)CC1)C(C)C)C(=O)N[C@@H](CCSC)C(N)=O [^68Ga-DOTA-Ahx-BN Tris-, metal not drawn] ({DOTA-Ahx}-GGCQWAV[Cha]H[Nle]M-NH2)
[1]
  Log P (octanol/water): − 1.18 ± 0.06
[2]
  Bmax (apparent number of binding sites per cell): 4.88 × 10^5 sites/cell
  Kd: 10.4 ± 1.71 nM
[3]
  Radio-HPLC tR: 18.3 min
[4]
  Bmax (apparent number of binding sites per cell): 4.91 × 10^5 sites/cell
  Kd: 14.5 ± 2.4 nM
